Values of other authors, collected in publication PMC10769511.

Target: histone H3K4me3 peptide (Homo sapiens) (UniProt P68431)

Kd: 160 nM
Substance: PHF2 PHD-Jumonji (from UniProt O75151)
